Results on 4 molecules are retold here after patent US20200299380A1 (published 2020).

Where a chain is given by its changes, count along the chain named.

Experiment [1] deals with T1, MICA*001 expressed at the cell surface (human, UniProt Q29983 24-297).
T1 sequence: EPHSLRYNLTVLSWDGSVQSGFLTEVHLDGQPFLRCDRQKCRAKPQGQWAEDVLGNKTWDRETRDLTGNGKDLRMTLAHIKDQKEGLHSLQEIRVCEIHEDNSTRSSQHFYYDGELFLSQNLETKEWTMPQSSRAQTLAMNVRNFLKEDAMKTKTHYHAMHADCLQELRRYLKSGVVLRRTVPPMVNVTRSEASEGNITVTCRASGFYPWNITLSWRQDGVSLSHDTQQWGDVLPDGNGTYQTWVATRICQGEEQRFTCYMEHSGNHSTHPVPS
As to the kind of experiment: cell-based or functional assay.

The target in experiment [2] is T2, human ULBP-1-Fc (R&D systems) (human, UniProt Q9BZM6 26-216, limits assumed).
T2 construct: Bought; not shown: Fc of the bought fusion protein
T2 sequence (looked up): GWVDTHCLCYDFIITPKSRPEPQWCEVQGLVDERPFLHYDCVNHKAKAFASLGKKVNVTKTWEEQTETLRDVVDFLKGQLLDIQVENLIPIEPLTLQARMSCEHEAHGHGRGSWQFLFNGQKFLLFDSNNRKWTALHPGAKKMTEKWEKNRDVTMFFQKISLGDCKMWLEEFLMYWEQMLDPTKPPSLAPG
The experiment can be described thus: SPR, antibody injected over immobilized ULBP-1-Fc. On the procedure: (§1) For cross-binding study, the human ULBP-1-Fc (R&D systems*), MICB-Fc (*), ULBP-2-Fc (*) and ULBP-3-Fc (*) recombinant proteins were covalently immobilized respectively on the flow cell one to four of a CM5 sensorchip. Anti-MICA antibodies (at a constant concentration of 10 μg/ml) were injected for 2 minutes at a flow rate of 10 μl/min onto the four flow cells in parallel. After each cycle, Sensorchip was regenerated by a five second injection of appropriate regeneration buffer.
(In general: Surface plasmon resonance follows binding to a sensor surface in real time, without labels.)

The target in experiment [3] is T3, human ULBP-2-Fc (R&D systems) (human, UniProt Q9BZM5 26-217, limits assumed).
T3 construct: Bought; not shown: Fc of the bought fusion protein
T3 sequence (looked up): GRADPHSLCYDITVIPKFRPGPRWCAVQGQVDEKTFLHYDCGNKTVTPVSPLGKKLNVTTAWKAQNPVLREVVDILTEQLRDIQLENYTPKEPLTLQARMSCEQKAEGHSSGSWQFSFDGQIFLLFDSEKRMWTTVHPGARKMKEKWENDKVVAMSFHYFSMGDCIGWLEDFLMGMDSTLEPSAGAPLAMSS
The experiment can be described thus: SPR, antibody injected over immobilized ULBP-2-Fc. On the procedure:
as §1

For experiment [4], the target named is T4, human ULBP-3-Fc (R&D systems) (human, UniProt Q9BZM4 30-217, limits assumed).
T4 construct: Bought; not shown: Fc of the bought fusion protein
T4 sequence (looked up): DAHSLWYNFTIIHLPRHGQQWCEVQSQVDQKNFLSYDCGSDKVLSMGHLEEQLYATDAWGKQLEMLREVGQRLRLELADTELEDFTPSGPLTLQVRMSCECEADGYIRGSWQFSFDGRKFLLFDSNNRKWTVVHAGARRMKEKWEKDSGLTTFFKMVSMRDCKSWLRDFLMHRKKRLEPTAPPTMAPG
As to the kind of experiment: SPR, antibody injected over immobilized ULBP-3-Fc. As for the experimental part:
as §1

The target of experiment [5] is T1, MICA*001 expressed at the cell surface. The experiment can be described thus: flow cytometry on C1R transfectant cells, 4-parameter logistic fit. As for the experimental part:
(§2) The binding of antibodies obtained from the first, second and third immunization series (including CHG1-M-MIA-19E9, CHG1-M-MIA-9C10, CHG1-M-MIA-6E4, CHG1-M-MIA-20C6, CHG1-M-MIA-16A8, CHG1-M-MIA-12A10, CHG1-M-MIA-10A7, CHG1-M-MIA-18E8, CHG1-M-MIA-10F3, CHG1-M-MIA-15F9 and CHG1-M-MIA-14B4) were tested for binding to MICA-expressing CR1 transfectant cells C1R-MICA*001, C1R-MICA*004, C1R-MICA*007 and C1R-MICA*008 (Pr. A. Steinle, Eberhard-Karls University Tuebingen, Germany) described in Salih et al. (2003) Blood 102(4): […]. Binding was analyzed by flow cytometry.
(§3) Cells were harvested and stained in PBS 1×/BSA 0.2%/EDTA 2 mM buffer during 30 minutes at 4° C. using a dose-range of the anti-MICA mAbs. After two washes in staining buffer, cells were stained for 30 min at 4° C. with mouse anti-human IgG1-PE monoclonal antibodies (1/11). After two washes, stainings were acquired on a BD FACS Canto II and analyzed using the FlowJo software.
(§4) Antibodies CHG1-M-MIA-19E9, CHG1-M-MIA-9C10, CHG1-M-MIA-6E4, CHG1-M-MIA-20C6, CHG1-M-MIA-12A10, CHG1-M-MIA-10A7, CHG1-M-MIA-18E8, CHG1-M-MIA-10F3, and CHG1-M-MIA-15F9 bound to each of the C1R-MICA*001, C1R-MICA*004, C1R-MICA*007 and C1R-MICA*008 cells (see FIG. 1A for antibodies CHG1-M-MIA-19E9, CHG1-M-MIA-9C10, CHG1-M-MIA-6E4, CHG1-M-MIA-20C6, CHG1-M-MIA-12A10, CHG1-M-MIA-10F3, and FIG. 1B for antibodies, CHG1-M-MIA-18E8, CHG1-M-MIA-15F9, CHG1-M-MIA-10A7). […] EC50 values are shown in Table C in μg/ml (calculated using a 4-parameter logistic fit).
Background: A flow cytometer gives signals particle by particle.

Experiment [6] concerns the target T5, MICA*004 expressed at the cell surface (human, UniProt Q29983 24-297).
T5 construct: also called C1R-MICA*004; C1R-MICA*04
T5 chain: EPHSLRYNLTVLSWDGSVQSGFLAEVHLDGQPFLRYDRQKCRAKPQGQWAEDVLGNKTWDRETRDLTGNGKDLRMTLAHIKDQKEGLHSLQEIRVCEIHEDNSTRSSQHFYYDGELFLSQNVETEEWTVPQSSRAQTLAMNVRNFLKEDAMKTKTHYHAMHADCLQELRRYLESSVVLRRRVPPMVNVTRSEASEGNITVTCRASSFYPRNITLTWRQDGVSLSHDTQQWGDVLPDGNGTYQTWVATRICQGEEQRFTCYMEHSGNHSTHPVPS
The description is as above. On the procedure: as §2, §3, §4

In experiment [7] the target is T6, MICA*007 expressed at the cell surface (human, UniProt Q29983 24-297).
T6 construct: also called C1R-MICA*007; C1R-MICA*07
T6 chain: T1 sequence with T24A, K125E
Described as above. As for the experimental part: as §2, §3, §4

Experiment [8] addresses T7, MICA*008 expressed at the cell surface (human, UniProt Q29983 24-297).
T7 construct: also called C1R-MICA*008; C1R-MICA*08
T7 chain: T5 chain with V122L, S175G, R181T, T213I, Q251R
Described as above. As for the experimental part:
as §2, §3, §4

The target in experiment [9] is T8, recombinant human MICA extracellular domain recombinant-His protein (MICA*001 allele) (human, UniProt Q29983 24-297).
T8 construct: also called MICA*001-His; MICA-His; not shown: His tag
T8 sequence: T1 sequence
The experiment can be described thus: SPR (Biacore T100), bivalent mean KD at pH 7.4, MICA*001-His on NTA chip, antibody injected. As for the experimental part: The binding of 6E4, 20C6 and 16A8 to either recombinant human MICA extracellular domain recombinant protein monomers or dimers (MICA*019 allele-Fc protein or MICA*001-His protein) as well as other NKG2D ligands MICB and ULBP1-2 was analyzed by Surface Plasmon Resonance (SPR) using a Biacore T100 apparatus to obtain monovalent and bivalent affinity, respectively.
Each cycle consisted of three steps. Firstly, the NTA chip was activated with NiSO₄ (500 mM). Secondly, the MICA-His protein (diluted to 10 μg/ml in running buffer HBS-P) was immobilized onto the surface via a 2 min injection at a constant flowrate of 10 μL/min. Then the antibody was injected over the immobilized antigen for 2 min at the flow rate of 40 μl/min. Subsequently, the running buffer was injected for 5 min at 40 μl/min for antibody dissociation analysis. After each cycle, the surface was regenerated by a 60s injection of 0.5M EDTA, pH 8.3 to completely strip the surface of the remaining antigen and antibody. The resulting sensorgrams were analyzed by global fitting using the appropriate model.

The target of experiment [10] is T9, MICB-Fc (R&D Systems 1599-MB) (human, UniProt Q29980 23-298, limits assumed).
T9 construct: Bought; also called human MICB-Fc; not shown: Fc of the bought fusion protein
T9 sequence: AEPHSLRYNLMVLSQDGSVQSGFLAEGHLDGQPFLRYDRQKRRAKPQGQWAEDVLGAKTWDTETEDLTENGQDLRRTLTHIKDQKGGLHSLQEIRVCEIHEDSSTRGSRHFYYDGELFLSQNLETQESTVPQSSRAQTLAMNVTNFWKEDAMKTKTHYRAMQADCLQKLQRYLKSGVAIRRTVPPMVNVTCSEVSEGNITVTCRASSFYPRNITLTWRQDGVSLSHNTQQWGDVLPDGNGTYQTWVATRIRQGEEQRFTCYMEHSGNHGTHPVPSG
The experiment can be described thus: SPR, antibody injected over immobilized MICB-Fc. On the procedure: as §1

In another experiment the target is T10, MICA*001-BirA (human, UniProt Q29983 24-297).
T10 construct: also called MICA-BirA; MICA*01-BirA; not shown: BirA tag
T10 sequence: T1 sequence
As to the kind of experiment: SPR single cycle kinetics, monovalent mean KD at pH 7.4, antibody captured on Protein-G chip, MICA-BirA injected. As for the experimental part: For monovalent affinity measurement, chimeric anti-MICA antibodies were captured onto a Protein-G chip.
Affinities were determined using single cycle kinetics (SCK). SCK cycles were as follows: Successive 120s injections at 30 μl/min of 5 serial dilutions (0.01 to 100 nM) of MICA-His or MICA-BirA in ascending order (or of buffer for the blank injections to be subtracted during the analysis). After the last concentration is injected, complex is left to dissociate for 600s before regeneration by a 10s injection of appropriate regeneration buffer at 40 μl/min. After the regeneration, chip is left to stabilise for 60s in running buffer. Curves are fitted using Biacore T100 Evaluation software.

B1: CHG1-M-MIA-9C10 (antibody, human IgG1, V domains shown)
VH: QVQLQQPGAELVRPGTSVNLSCKASGYSFTRYWMNWVKQRPGQGLEWIGMIHPSDSETRLNQKFKDKATLTVDKSSSTAYMQLSSPTSEDSAVYYCGYGNFFYVMDYWGQGTSVTVSS
VL: DILLTQSPAILSVSPGERVSFSCRASQSIGTSIHWYQQRTNGSPRLLIKFASESISGIPSRFSGSGSGTDFTLNINSVESEDIADYYCQQSNFWPFTFGSGTKLEVK
notes: also called chimeric anti-MICA 9C10
As usually defined, the EC50 is the concentration giving half of the maximal effect. As to B1, the “CDC: EC50 of the increase in dead (7-AAD positive) Raji-MICA*01 cells with human complement” value in experiment [1] stood at 2 µg/mL. In addition, the binding result in experiment [2], in experiment [3] and in [4] was “no binding (tested: 10 µg/ml)” throughout. Also, the EC50 in experiment [5] came to 2.09 µg/mL; in experiment [6], 0.13 µg/mL; in experiment [7], 2.83 µg/mL; in experiment [8] it was 0.13 µg/mL.

B2: biotin-conjugated mouse antibody 9C10 (antibody, V domains shown)
VH: B1 VH
VL: B1 VL
notes: also called 9C10 (mouse)
On to B2, for which, in experiment [9], the Kd came out at 0.62 pM.

B3: CHG1-M-MIA-14B4 (antibody, V domains shown)
VH: QVQLQQPGAELVRPGASVKLSCKASGYSFTSYWMNWMKQRPGQGLEWIGMIHPSDSETRLNQKFKDKATLTVDKSSSTAYMQLNSPTSEDSAVYYCAREMGPYTLDYWGQGTSVTVSS
VL: B1 VL with E17A, S28N, G30D, F50Y, N74S, F93Y, F96L, S100A, V106L
notes: the VH entry ends with ASTK
B3: the binding result in [10] is on record as “no binding (tested: 10 µg/ml)”. Besides, the EC50 in experiment [5] amounted to 12.7 µg/mL; in experiment [6], 0.24 µg/mL; in [8], 0.3 µg/mL.

B4: CHG1-M-MIA-12A10 (antibody, human IgG1, V domains shown)
VH: QVQLQQSGADLVRPGASVRLSCRASGYSFTNYWMNWVKQRPGQGLEWIGMIHPSDSETRLNQKFKDKATLTVDKSSNTAYMQLSSPTSEDSAIYYCARDDFFTMDYWGQGTSVTVSS
VL: B1 VL with S28N, G30V, R39S, F50Y, N74T, I83V, F93I, F96L, S100A, V106L
notes: the VH entry ends with ASTK
For the molecule B4, in experiment [10], the binding result was “no binding (tested: 10 µg/ml)”. Further, the EC50 in experiment [5] stood at 1.3 µg/mL; in experiment [6], 0.26 µg/mL; in [7], 1.43 µg/mL; in [8], 0.25 µg/mL. In the experiment with MICA*001-BirA, this molecule gave a Kd of 53 nM.
